From the DeepSol protein solubility set

Test: soluble on expression in E. coli; label from the status in PepcDB or PDB records

| Sequence | soluble on expression in E. coli |
| --- | --- |
| MSLRTEEEMFQLIMDVAKQEEHIRAVGMVGSRTNVKAPKDSFQDFDIVYIVEPCAEFFETATWIAKFGQPLIMQRPKEMTLFPTEPKTRETFLMLFEDGQRIDLTLCPLAEKDNWHEGDSLAIILLDKDENLPPLPVASDKNYTVTVPDQQQFNDCCNEFWWVSTYVVKGLCRNELFYAVTHLYEYCQQELLRLLSWQAAWQEPEPISVGKQFKYLKNYVTPDTMDQLASLLDFSSKEACWNSLIKTQAFFDVVAQDFAKMAQFTYHLQEAKKVTEYTNSLRLKDLQGKEGHHHHHH | soluble |
| MSLRTPYEEVRDFFHFVDNYVAEIDLLAEELAQELEIEGGETYGILAAHLRSLYGIHITRTEAAGGLIRHFDPAGKTLALSSYMAAPTRCFQLALQIAQLHAGATVDRVLAGAGFRNAEAAEICRIGLHNYFAAALILPYGQFHRAAQELRHDLELLAVRFGASLEQVAHRLSTLQRPGMKGVPIFFAKIDRAGNITKRHSATRLQFARFGAACPLWNIHQAFESSDRIVRQLAETPDGVRYLSIATQIEKAGAGFNTERPRYAIALGCEISHAQNFVYADTLDLGNAASFKPIGISCRVCERVDCVQRAVPPLKRKLHFDHLSRGALPYQIAEGHHHHHH | soluble |
| MSLRTSYKIYCTYKNIHAWYDAIKCGIDAAVKELAEKGVTVDYEWYGPAQPDAVDQVNSIETAIGQGWDLIAVDVNQPELTGEAINNAVAKGIPVAVFGTSDVPNCDRAFFVGNTDPYGDGCALAKAVCEKMGGKGQIAILAGTIGALAHEERLRGFKDTIAKYPDIEIVDEQRDNDEVEKAISITESWLQAYPNLGGILCNNMSNPVGACQAVADAGKSGKIVIGGMDHDLRALNALKDGTLYVAQVQNCYDMGYKLIYNAIKTIDGEKVEESTAVGSTSVYAQDADKFINMLYGEANEGHHHHHH | soluble |
| MSLRVIDSHTAGEPTRVVLDGGPDLGSGTLAERAARLEAEHLDFCASVMLEPRGHDAIIGALLVPPSDPACAAGVIYFNNLQNLGMCGHATIGLGVTLAHLGRIRPGRHRFETPVGVVEIDLIDANTVSVVNIESYRLAKDVTVEVEGVGPVTGDVAWGGNWFFMVKNSPIALTGANIRPLTDLTLKIRTALEKAGVTGKDGAWIDHIELFGPAEDPAAQSRNFVLCPGGAYDRSPCGTGCSAKMACLAADGALAPGQDYLQESVIGSTYKISYQPGPGGGVIPTITGQAFVTSDATLIFNPADPYRSGIRLEGHHHHHH | soluble |
| MSLSAGETDERLRIATTTSLYDTKLLDTLESRFEEKYGIEVDVISGGTGFALEQGRRGDVDLLLVHDKAREYEFIAEGYGTERRCFAYNYFYIVGPADDPAGIKGTNASEAFRMIADAGEKNSNVRFVSRGDNSGTHAREKLLWKSAGIEPSGSWYLESGQGMGATLIMVDEKRAYTLTDMSTYMAFAGNLSLVPLVTESEELLNVYAAIPVSASEHLDDAERFVEFLLSQEGQEIIAGYGKDIYGRALFYPAAGHCTEIGCNATECPGEMVSAFGEGHHHHHH | soluble |
| MSLSAHEIRELFLSFFEKKGHTRVKSAPLVPENDPTLLFVNAGMVPFKNVFLGLEKRPYKRATSCQKCLRVSGKHNDLEQVGYTSRHHTFFEMLGNFSFGDYFKKEAIEYAWEFVTEVLKLPKEKLYVSVYKDDEEAYRIWNEHIGIPSERIWRLGEEDNFWQMGDVGPCGPSSEIYVDRGEEYEGDERYLEIWNLVFMQYNRDENGVLTPLPHPNIDTGMGLERIASVLQGKNSNFEIDIIFPLIQFGEEVSGKKYGEKFETDVALRVIADHLRAITFAISDGVIPSNEGRGYVIRRILRRAMRFGYKLGIENPFLYKGVDLVVDIMKEPYPELELSREFVKGIVKGEEKRFIKTLKAGMEYIQEVIQKALEEGRKTLSGKEVFTAYDTYGFPVDLIDEIAREKGLGIDLEGFQCELEEQRERARKHFKVEAKKVKPVYSHLKELGKTSAFVGAAALEHHHHHH | soluble |
| MSLSAHPVPHAPAAPVCLAPRPAVPPTAVTVPPGAWDCHAHVLGPADLYPMQAERSYTPPDSSAAQYAALLDTLGLRRGVLVQPSVYGTDNRLLAQAVARPEWRGIAVLDPAADTRQVAALHAAGVRGFRLNLLFPGGPGLDALERSAALVAPFGWHAQLLVDVRILPGIEHRLARLPVPVVFDHLGHFPYELGTDWPGFHALLRRVAAGRTYVKLSGSYRLSARASHIADVAPIAQALVREAPQRLVWGSDWPHVGRFQDMPATHALLDALALWCPDPAARRAILVDTPTQLYSEGHHHHHH | not soluble |
| MSLSAMQWERLLDPTRLNDKHGGSREEIGRSPFHKDHDRIVFAGSFRRLGRKTQVHPLTDNDHIHTRLTHSLEVGCVGRSLGMIVGEQLRERLPAWITPADLGVIVQAACLGHDIGNPPFGHAGEYAIRDWFKRAEADGSGLLADLAPAEREDLLTYEGNAQGFRIVTQIEYNQFNGGMRLTAATLGTMLKYPWTVERASRAGKFGCYQSERELLGEVAERLGLLPRGETAWCRHPLAYLVEAADDICYALLDLEDGLEMGILRFDEVAEILIQIAGGAPEGYDGMRARGVSQRRRIATLRGAAMERAVNDVAAVFVAHESALLGGTLSEDLLELCHPDLGWGVGTAKRIARERIFQNERKAKLEIGAYTTLGILLEAFIGAAHELHYSGQSSFKHQRVLALIGENTPKSSWSLYASYRRMLDFIGGMTDHYAVDLAQEMGGRLEGHHHHHH | soluble |
| MSLSDDTIDRFFGYLNWLFNPFHGLKTTEVYDLIGTSSLTENALYLNLGYWRKADTIDEASEALALLVAKRGGMGPGDIVLDCGYGFGDQDILWARQLKPEKIIGLNITSSQVERARKRVADAGLEQSIDLREGSATAMPIENESIDLVVSVESAFHYRTREAFFREAFRVLRPGGRLVTADIVPTENSGNPFRRMEQWFSWNLVAGKFNIPQENYYLIPSYQNKLTKAGFVQIDIKSIRDDVYEPLHAYLAKNRTFFAKMHPLARIMAQLTLNRSAESVYAGLDYILSYAEKEGHHHHHH | soluble |
| MSLSDSNDDRPFRPFQSQYRWPGVDLLAYKEEGSAPFRSVTRQVLFSGNGLTGELRYFEVGPGGHSTLERHQHAHGVMILKGRGHAMVGRAVSAVAPYDLVTIPGWSWHQFRAPADEALGFLCMVNAERDKPQLPTEGHHHHHH | not soluble |
| MSLSDVSSNYWAAPFIQQLSQRGVIAGFPDGSFRPEEAVTRAQFAAMVNKAFQKSQQRSPINFADVPSNYWASSAIQQAYTIGFLSGYPGNRFEPNQAIPRQQVLVSLANGLEYSPIGNTESTLQYFNDASNIASYARSPMAAATEKQIVVNYPNVKFLNPTATATRAQVAAFIYQALVSSNQASAINSEGHHHHHH | soluble |
| MSLSDYKVGEELSDKEGVEYFKELSKRPVQEWPNKNLSINDVPKGKQGDLIRYGIELLSKTESTLGPYSKLKKTSNEVNCISCHMDNDGNGLPGTKKYVIPFLNILNNYPRLDIETMKIISVEDRIRGMGGTDSHRFPNDSKEMKAILAYFKWLKEAYGIKDGVKLEGDFFAKMNFPNRPADPVRGKKLFEENCVACHGERGLGVKNDNYEQGSGHLYPSLLIYPDGGHMAMIPFLARFLKSAMPFGASADNPILSDEDALDIAAYVNTGFVRMPITTTENRAGLDTAYSKSPSLKPEYFASPQQNLDPKEYIKVKYGPWKNPNHFPGEGHHHHHH | soluble |
| MSLSEDENALSIFETNCHSGSPKKQSSSAAIHKPYLHFTMSPYHQPTSYRPRLLLSGERGSGQTSHLAPALLHTLERFSVHRLDLPALYSVSAKTPEESCAQIFREARRTVPSIVYMPHIGDWWEAVSETVRATFLTLLQDIPSFSPIFLLSTSETMYSELPEEVKCIFRIQYEEVLYIQRPIEEDRRKFFQELILNQASMAPPRRKHAALCAMEVLPLALPSPPRQLSESEKSRMEDQEENTLRELRLFLRDVTKRLATDKRFNIFSKPVDIEEVSDYLEVIKEPMDLSTVITKIDKHNYLTAKDFLKDIDLICSNALEYNPDKDPGDKIIRHRACTLKDTAHAIIAAELDPEFNKLCEEIKEARIEGHHHHHH | not soluble |
| MSLSEEKWAIITGADGGMGTEITRAVAEAGYHIIMACYRPSKAEPIRQRLVNETGNANMEVMAVDLSSMASTASFADRIVERHLPVSLLMNNAGTMETGLHITDDGFERTVSVNYLGPYLLTRKLLPALTCGARIVNMVSCTYAIGHLDFPDFFRQGRKGSFWRIPVYSNTKLALMLFTIELSERLREKGITVNAADPGIVSTDIITMHQWFDPLTDIFFRPFIRTPKKGASTAVGLLLDEAVAGVSGQLYASSHRKQLSEKYLCHVQQKQLWQETEQALERWLKEGHHHHHH | soluble |
